This note sets out measurements from article PMC7327620.

The assay deals with Tailless ΔHoc T4 phage capsids (bacteriophage T4) (UniProt P19896). Put plainly: native gel or EMSA; Mal–Hoc mixed with ΔHoc T4 capsids at a series of molar ratios; 22°C for 2 h or overnight (16 h) in PBS with 10 mM MgCl2; 1% agarose, 100 V for 2 h, 1x Tris–Acetate–EDTA; GelCode blue protein stain. (In general: Mobility shift assays separate free from complexed probe on a gel.)

“And” between values parts separate entries of the source, which are not always exact repeats. Equal values may be shown once.

On to Maltase–SC–St–Hoc fusion (complex), for which the stoichiometry N (Mal–Hoc per capsid) is 60 to 120 (2×) and 90.
